Test system: ILF3 mouse-human dsRBM2 (SPR) (mouse-human (so in the source))
Assay: SPR
Conditions: ELISA and SPR buffers not given in the material (SPR: Biacore T100, biotin-RNA on streptavidin chip); biopanning: TENT (10 mM Tris-HCl pH 8.0, 1 mM EDTA, 250 mM)

Substance: invSINEB2 of AS Uchl1
- Kd: 94.9 nM

— publication PMC6894054
